Assay [1] concerns the target T1, human IL-2Rβ (CD122 protein, Fc Tag) (27-239) (human, UniProt P14784 27-239).
T1 construct: range 27-239; Bought protein; also called IL-2Rβ subunit; IL-2Rβ-Fc; not shown: Fc Tag of the bought protein (ACRObiosystems ILB-H5253)
T1 sequence (looked up): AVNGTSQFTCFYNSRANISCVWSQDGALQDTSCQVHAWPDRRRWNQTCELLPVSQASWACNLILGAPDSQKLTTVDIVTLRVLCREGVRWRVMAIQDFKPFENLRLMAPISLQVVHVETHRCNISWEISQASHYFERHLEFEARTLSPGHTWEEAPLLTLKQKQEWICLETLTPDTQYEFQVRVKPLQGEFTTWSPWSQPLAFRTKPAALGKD
In words: pH-dependent ELISA (Examples 9-12). As for the experimental part: For each peptide to be assayed, 16 ELISA plate wells were coated with neutravidin ([…] in PBS pH7.2) at 50 μL/well. The coated wells were incubated at 25° C. for at least 1 h.
The neutravidin was removed from each well. Three-hundred (300) μL of blocking buffer (1×PBS pH 7.2, 1% BSA) was added to each well of the neutravidin-coated plates. All plates were covered and maintained at 25° C. for 1 h or overnight at 4° C.
The biotinylated peptides were diluted to 1 μM in PBT pH 7.2 buffer and 50 uL was added to the appropriate 16 wells (8 for each binding pH). The plates were incubated at 25° C. for at least 1 h.
(ELISA stands for enzyme-linked immunosorbent assay.)

Assay [2] addresses T1, human IL-2Rβ (CD122 protein, Fc Tag) …. The experiment in a line: IC50, method not told in the paragraph.

In the case of QVLKNCRLAHIGELCYLSER [SEQ ID NO 428], the “decrease in binding at pH 7.5 compared to pH 6.0” value (from here on “decrease in binding”) in assay [1] was greater than 15%.
LSCSIAQVGELCDL [SEQ ID NO 456]: the “decrease in binding” value in assay [1] was greater than 15%.
For the molecule TYAKLVNYCWTAQLGELCYL [SEQ ID NO 461], the “decrease in binding” value in assay [1] was greater than 15%.
As for GLNPMIPGCQMAQVGELCEL [SEQ ID NO 463], the “decrease in binding” value in assay [1] was greater than 15%.
Regarding NLRQNCRDAPVGELCDLEWI [SEQ ID NO 501], in assay [1], the “decrease in binding” value is greater than 15%.
On to VLEVLRQECRMAQVGELCDL [SEQ ID NO 494], for which the “decrease in binding” value in assay [1] was greater than 15%.
For orientation: IC50 means the point on the concentration scale where inhibition reaches its midpoint. Low values mean greater potency in that assay, high ones weaker potency in that assay. As for YDCRIAQVGELCDL (also called Peptide E) [IL-2Rβ ligand SEQ ID NO: 58], the IC50 in assay [2] was less than 10 µM.
For the molecule YLCQVAGVGELCDLEESGRN [SEQ ID NO 566], in assay [1], the “decrease in binding” value is greater than 15%.
LEFMWIQDCGMAEVGELCEL [SEQ ID NO 468]: the “decrease in binding” value in assay [1] was greater than 15%.
The same measure, in the same setting: the same measure for QDGAKLKECRVAQVGELCEF [SEQ ID NO 427]: greater than 15%; for SVWQECSMAQVGDLCELHIG [SEQ ID NO 495]: greater than 15%.
On to LLSYPCRMAQVGELCDIAMK [SEQ ID NO 570], for which, in assay [1], the “decrease in binding” value is greater than 15%.
Turning to KSCARAQVGELCYIEGAEDA [SEQ ID NO 430], in assay [1], the “decrease in binding” value was greater than 15%.
On to VDCWIAQLGELCELEDGRRQ [SEQ ID NO 524], for which the “decrease in binding” value in assay [1] was greater than 15%.
In the case of LLCRMAHLGELCDL [SEQ ID NO 448], the “decrease in binding” value in assay [1] was greater than 15%.
On to EQTRSGYACRTAQVGELCDL [SEQ ID NO 535], for which the “decrease in binding” value in assay [1] was greater than 15%.
With QDCRMAHLGELCTL [SEQ ID NO 480], the “decrease in binding” value in assay [1] was greater than 50%.
Same read-out and setting: with KDCRLAYVGELCDLNRSDTI [SEQ ID NO 423] the figure was greater than 15%.
In the case of HQCRFAHVGELCDLFVFESY [SEQ ID NO 419], the “decrease in binding” value in assay [1] was greater than 15%.
On to SWVNNCRMAQVGELCDLPNW [SEQ ID NO 460], for which, in assay [1], the “decrease in binding” value is greater than 15%.
On to GRFYPCNMAQVGELCELMEY [SEQ ID NO 568], for which the “decrease in binding” value in assay [1] is greater than 15%.
Take HECRFAQVGELCDL [SEQ ID NO 418]: the “decrease in binding” value in assay [1] was greater than 15%.
Regarding TWAYDCRTAEVGELCDLPVQ [SEQ ID NO 551], the “decrease in binding” value in assay [1] is greater than 15%.
On to LECRLARLGDLCYL [SEQ ID NO 443], for which the “decrease in binding” value in assay [1] is greater than 15%.
Same read-out and setting: with QDCRMAQVGHLCDL [SEQ ID NO 481] the figure was greater than 15%.
As to WGRQECRFANVGDLCDVSNY [SEQ ID NO 491], the “decrease in binding” value in assay [1] was greater than 15%.
Consider GYEPIMRACRNAQVGDLCDL [SEQ ID NO 506], for which the “decrease in binding” value in assay [1] is greater than 15%.
Consider SDCSVANVGDLCNL [SEQ ID NO 515], for which the “decrease in binding” value in assay [1] is greater than 15%.
In the case of WQCRWAQVGELCDLSSENDN [SEQ ID NO 531], the “decrease in binding” value in assay [1] was greater than 15%.
KACSIAQVGDLCEIYGFDDA [SEQ ID NO 421]: the “decrease in binding” value in assay [1] is greater than 15%.
For GVKDGWEDCGIAQVGELCVL [SEQ ID NO 402], the “decrease in binding” value in assay [1] is greater than 15%.
Regarding WPMSQFQKCATAQVGELCEL [SEQ ID NO 499], the “decrease in binding” value in assay [1] was greater than 15%.
In the case of EDCWMAQVGQLCDL [SEQ ID NO 403], the “decrease in binding” value in assay [1] is greater than 15%.
With KDCRTALIGDLCDLTLHLGG [SEQ ID NO 425], the “decrease in binding” value in assay [1] is greater than 15%.
Same read-out and setting: the same measure for EYFSHDQDCQTAQLGELCKM [SEQ ID NO 471]: greater than 15%; for RTMKQCSIAQVGELCDLAVT [SEQ ID NO 429]: greater than 15%; for QDCRKANVGELCYLDWDSPT [SEQ ID NO 476]: greater than 15%.
Take FECWIAQVGELCDL [SEQ ID NO 411]: the “decrease in binding” value in assay [1] is greater than 15%.
Same read-out and setting: the same measure for DEMQDCQIAQVGELCDLGLE [SEQ ID NO 470]: greater than 15%; for FIAQKCRLAKVGELCDLGYS [SEQ ID NO 500]: greater than 15%; for LDCRIAPLGELCDMFISAFN [SEQ ID NO 436]: greater than 15%.
Take QPCRNAHLGQLCDLQTWTNS [SEQ ID NO 505]: the “decrease in binding” value in assay [1] is greater than 15%.
QDCRLAHLGDLCDLWSPRQN [SEQ ID NO 477]: in assay [1], the “decrease in binding” value is greater than 15%.
As to YDCRMAKVGDLCDLWSVWGR [SEQ ID NO 548], in assay [1], the “decrease in binding” value is greater than 15%.
As for AVKRFRQDCRTAPVGTLCDL [SEQ ID NO 485], the “decrease in binding” value in assay [1] was greater than 15%.
On to YACRFAHVGDLCDL [SEQ ID NO 534], for which the “decrease in binding” value in assay [1] was greater than 15%.
As to YDCQKAQLGELCDLRYSVRD [SEQ ID NO 536], the “decrease in binding” value in assay [1] is greater than 15%.
For the molecule YPCRMADVGELCDL [SEQ ID NO 569], in assay [1], the “decrease in binding” value is greater than 15%.
The same measure, in the same setting: the same measure for HDCWFAKLGELCDLRQMSFV [SEQ ID NO 416]: greater than 15%.
Consider VLCRIAQVGQLCEL [SEQ ID NO 526], for which, in assay [1], the “decrease in binding” value is greater than 15%.
Still for that read-out and setting: the same measure for QNCSTAKVGELCDLLMEGTE [SEQ ID NO 503]: greater than 15%; for LRCRMAQVGDLCDLDRAWDW [SEQ ID NO 454]: greater than 15%; for VTGWTYRDCRIANVGDLCEL [SEQ ID NO 507]: greater than 15%.

(Values after patent publication US20230192767A1 (MEDIKINE, published 2023).)
